Experimental data as given in publication PMC11938383, “Antibodies targeting ADAM17 reverse neurite outgrowth inhibition by myelin-associated inhibitors” (Life Science Alliance, 2025).

Assays:
p75-Fc (human) = p75-Fc (human) (UniProt P08138); experiment: BLI; Blitz (Forte Bio); 5-mer complex (via Lingo-Fc) or p75-Fc loaded at 50 μg/ml on protein A sensors; ADAM17 ECD (E406A) or D+C in solution; HBS (20 mM Hepes, 150 mM NaCl pH 7.4); apparent KD
[1] = target: neuron-myelin 5-mer signaling complex (NgR1, Lingo-1-Fc, p75, MAG, GT1b-Na) (mouse | human) (UniProt Q9D1T0); experiment: as above
[2] = target: the molecule itself; experiment: SEC; individual proteins (Lingo-1, NgR1, p75 31-250) run alone on the SD-200 column, in the presence of GT1b-Na
[3] = target: ADAM17 ectodomain (ECD), residues 215-650, active-site mutant E406A (human, UniProt P78536 215-650, E406A); experiment: BLI
[4] = target: T1, neuronal receptor/co-receptor/p75 complex (Lingo-1-Fc, NgR1, p75, formed with GT1b-Na) (mouse | human, UniProt Q9D1T0 35-516; Q9BZR6 30-430; P08138 31-210); experiment: pull-down; Lingo-1-Fc as bait on protein A-Sepharose; untagged NgR1, p75 (31-210) and MAG as prey; NgR1 and p75 pre-incubated with GT1b-Na (molar ratio 1:10), with or without GT1b-Na; 10 mM Hepes pH 7.4, 150 mM NaCl, 0.05% Triton-X100; 25°C, 1 h; two washes; SDS-PAGE; settings: both partners purified
T1 construct: Lingo-1, mouse, residues 35-516; NgR1, human, residues 30-430; p75, human, residues 31-210 (the version used in the pull-down assays); also called NgR1, Lingo-1, p75 complex; neuronal complex; source: assembled from purified HEK293 proteins on protein A-Sepharose in the presence of GT1b-Na; not shown: Fc, C-terminal, kept; Fc, C-terminal, cleaved; copies: + +
T1 sequence (looked up) 1: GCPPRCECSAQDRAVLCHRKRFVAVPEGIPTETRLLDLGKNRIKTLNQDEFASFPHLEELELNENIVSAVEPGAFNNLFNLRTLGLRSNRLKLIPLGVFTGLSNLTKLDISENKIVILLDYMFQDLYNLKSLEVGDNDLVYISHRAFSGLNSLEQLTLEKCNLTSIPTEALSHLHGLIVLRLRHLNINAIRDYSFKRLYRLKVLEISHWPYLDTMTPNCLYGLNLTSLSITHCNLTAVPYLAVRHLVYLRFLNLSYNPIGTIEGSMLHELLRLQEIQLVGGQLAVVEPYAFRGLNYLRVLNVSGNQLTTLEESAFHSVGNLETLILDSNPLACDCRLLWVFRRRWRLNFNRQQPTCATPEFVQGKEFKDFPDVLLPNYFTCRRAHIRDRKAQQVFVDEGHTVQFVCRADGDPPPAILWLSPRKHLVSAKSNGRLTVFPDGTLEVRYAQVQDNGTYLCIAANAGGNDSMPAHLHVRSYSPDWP
T1 sequence (looked up) 2: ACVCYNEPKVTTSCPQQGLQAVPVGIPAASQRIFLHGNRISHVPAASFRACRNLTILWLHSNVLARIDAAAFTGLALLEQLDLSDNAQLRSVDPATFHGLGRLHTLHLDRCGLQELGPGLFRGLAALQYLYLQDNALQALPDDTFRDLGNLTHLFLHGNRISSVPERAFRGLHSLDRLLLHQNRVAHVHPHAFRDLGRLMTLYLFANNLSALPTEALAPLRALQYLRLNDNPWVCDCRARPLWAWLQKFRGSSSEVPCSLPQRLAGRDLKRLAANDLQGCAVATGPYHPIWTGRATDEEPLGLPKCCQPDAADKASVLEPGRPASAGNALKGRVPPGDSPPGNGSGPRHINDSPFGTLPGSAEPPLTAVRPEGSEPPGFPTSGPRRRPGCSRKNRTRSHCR
T1 sequence (looked up) 3: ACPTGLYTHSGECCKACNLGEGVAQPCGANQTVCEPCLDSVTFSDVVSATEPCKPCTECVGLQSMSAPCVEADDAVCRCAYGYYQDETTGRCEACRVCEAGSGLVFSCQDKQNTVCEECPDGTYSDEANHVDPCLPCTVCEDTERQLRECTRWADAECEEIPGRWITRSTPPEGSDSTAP

For “ADAM17 D+C (disintegrin + cysteine-rich domain region) (from UniProt P78536 474-646) (domain or fragment)”, the Kd (p75-Fc (human)) was 350 nM and the Kd [1] was 350 nM.

B1: Lingo-1 ectodomain (35-516) (domain or fragment, mouse, UniProt Q9D1T0 35-516, looked up)
chain: T1 sequence (looked up) 1
notes: Lingo-1 (LINGO-1), mouse, ectodomain, residues 35-516; Used in size-exclusion chromatography; It migrates as a tetramer; source: HEK293, purified (protein A Sepharose, size-exclusion on SD-200)
In the case of B1, the “stoichiometry N” value [2] is reported as 4.

B2: p75-Fc (Fc fusion)
chain: T1 sequence (looked up) 3
B2 showed a Kd [3] greater than 10000 nM.

B3: MAG (residues 22-504) (domain or fragment, human, UniProt P20916 22-504, looked up)
chain: WGAWMPSSISAFEGTCVSIPCRFDFPDELRPAVVHGVWYFNSPYPKNYPPVVFKSRTQVVHESFQGRSRLLGDLGLRNCTLLLSNVSPELGGKYYFRGDLGGYNQYTFSEHSVLDIVNTPNIVVPPEVVAGTEVEVSCMVPDNCPELRPELSWLGHEGLGEPAVLGRLREDEGTWVQVSLLHFVPTREANGHRLGCQASFPNTTLQFEGYASMDVKYPPVIVEMNSSVEAIEGSHVSLLCGADSNPPPLLTWMRDGTVLREAVAESLLLELEEVTPAEDGVYACLAENAYGQDNRTVGLSVMYAPWKPTVNGTMVAVEGETVSILCSTQSNPDPILTIFKEKQILSTVIYESELQLELPAVSPEDDGEYWCVAENQYGQRATAFNLSVEFAPVLLLESHCAAARDTVQCLCVVKSNPEPSVAFELPSRNVTVNESEREFVYSERSGLVLTSILTLRGQAQAPPRVICTARNLYGAKSLELPFQ
notes: myelin-associated glycoprotein (MAG), human, residues 22-504; also called myelin-associated glycoprotein; source: HEK293, purified (protein A Sepharose, size-exclusion on SD-200); not shown: Fc, C-terminal, cleaved
B3: binds [4].

B4: p75 ectodomain (residues 31-250) (domain or fragment, human, UniProt P08138 31-250, looked up)
chain: ACPTGLYTHSGECCKACNLGEGVAQPCGANQTVCEPCLDSVTFSDVVSATEPCKPCTECVGLQSMSAPCVEADDAVCRCAYGYYQDETTGRCEACRVCEAGSGLVFSCQDKQNTVCEECPDGTYSDEANHVDPCLPCTVCEDTERQLRECTRWADAECEEIPGRWITRSTPPEGSDSTAPSTQEPEAPPEQDLIASTVAGVVTTVMGSSQPVVTRGTTDN
notes: p75 (p75 NGF receptor), human, entire ectodomain, residues 31-250; Used in size-exclusion chromatography; migrates as an apparent dimer; One sentence of the methods prints 21-250 for this construct; also called longer version of p75; source: HEK293, purified (protein A Sepharose, size-exclusion on SD-200)
With B4 the “stoichiometry N” value [2] was 2.
